According to US20220331453A1 (INDUSTRY UNIVERSITY COOPERATION FOUNDATION HANYANG …, published 2022):

Target: T1, VEGFR1 (Flt1) on the membrane of HUVECs (human, UniProt P17948 27-1338)
T1 construct: whole, on cells; Endogenous receptor on HUVECs; also called fms-like tyrosine kinase-1
Assay: fluorescence imaging of HUVECs with dye-conjugated cage
Method: HUVECs were spread onto a 48-well plate at 4×10⁴ cells/well and then cultured overnight. The HUVECs were incubated with 50 ng/mL human recombinant rhVEGF₁₆₅ and dye-conjugated fusion protein cage at different concentrations for 15, 30 and 60 minutes at 37° C. The HUVECs were imaged in a […] (Zeiss, Oberkochen, Germany) using FITC.
A maleimide-modified fluorescent dye was conjugated at the thiol of HPC, and the conjugation of the fluorescent dye to the polypeptide was qualitatively identified by SDS-PAGE. The fluorescent dye-conjugated anti-Flt1-HPC4-EBPP[A₁G₄I₁]₆-PEDF 34-mer-EBPP[A₁G₄I₁]₆-HPC5 was visualized by exposure to UV light on SDS-PAGE without gel staining. In FIG. 5 (A) (b), the location of the dye-conjugated polypeptide is compared under UV light with that of a marker in a bright-field mode. The location corresponded to that of the fusion polypeptide on the copper-stained SDS-PAGE gel prior to the dye conjugation (FIG. 5 (A) (a)). The conjugation of the dye to anti-Flt1-HPC4-EBPP[A₁G₄I₁]₆-PEDF 34-mer-EBPP[A₁G₄I₁]₆-HPC5 was confirmed from the fluorescence spectrum. […] HUVECs were spread onto a […] plate and then cultured overnight. The HUVECs were incubated with 1 μM or 10 μM dye-conjugated polypeptide for 15, 30 or 60 minutes. […]

T1 sequence (P17948 27-1338): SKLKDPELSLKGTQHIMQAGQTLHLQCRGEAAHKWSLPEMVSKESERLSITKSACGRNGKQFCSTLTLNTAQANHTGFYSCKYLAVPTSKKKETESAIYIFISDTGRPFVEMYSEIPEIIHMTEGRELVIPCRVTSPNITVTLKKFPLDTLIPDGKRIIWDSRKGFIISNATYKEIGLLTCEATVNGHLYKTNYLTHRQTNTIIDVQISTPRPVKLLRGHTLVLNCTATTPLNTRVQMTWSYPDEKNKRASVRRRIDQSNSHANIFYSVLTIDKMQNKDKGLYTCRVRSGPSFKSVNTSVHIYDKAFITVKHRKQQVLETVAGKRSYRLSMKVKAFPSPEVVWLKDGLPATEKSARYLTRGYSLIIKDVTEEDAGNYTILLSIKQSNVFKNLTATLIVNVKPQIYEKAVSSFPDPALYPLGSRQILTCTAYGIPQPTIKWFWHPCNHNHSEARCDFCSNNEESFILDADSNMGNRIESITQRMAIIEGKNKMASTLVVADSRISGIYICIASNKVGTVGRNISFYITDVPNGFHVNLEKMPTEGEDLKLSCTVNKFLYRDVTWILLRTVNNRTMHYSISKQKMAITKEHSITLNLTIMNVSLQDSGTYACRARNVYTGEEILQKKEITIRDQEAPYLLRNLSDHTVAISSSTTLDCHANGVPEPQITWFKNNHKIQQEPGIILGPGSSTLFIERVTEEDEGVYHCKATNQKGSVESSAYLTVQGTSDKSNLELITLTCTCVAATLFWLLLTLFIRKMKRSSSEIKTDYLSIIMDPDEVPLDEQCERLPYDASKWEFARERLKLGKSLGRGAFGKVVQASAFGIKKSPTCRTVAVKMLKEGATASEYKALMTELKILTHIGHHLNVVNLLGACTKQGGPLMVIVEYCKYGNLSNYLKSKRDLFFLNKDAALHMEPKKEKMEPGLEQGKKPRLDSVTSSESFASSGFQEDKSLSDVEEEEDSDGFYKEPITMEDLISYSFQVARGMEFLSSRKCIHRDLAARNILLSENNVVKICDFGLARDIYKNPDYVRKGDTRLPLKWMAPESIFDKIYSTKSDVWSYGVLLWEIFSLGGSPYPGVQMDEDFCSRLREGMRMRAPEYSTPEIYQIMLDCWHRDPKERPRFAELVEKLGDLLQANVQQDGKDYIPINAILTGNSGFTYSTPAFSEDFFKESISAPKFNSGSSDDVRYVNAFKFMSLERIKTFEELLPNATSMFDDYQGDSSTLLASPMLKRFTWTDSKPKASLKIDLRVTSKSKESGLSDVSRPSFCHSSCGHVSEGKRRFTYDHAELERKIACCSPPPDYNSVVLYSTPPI

B1: fluorescent dye-conjugated anti-Flt1-HPC4-EBPP[A1G4I1]6-PEDF 34-mer-EBPP[A1G4I1]6-HPC5 (designed binder)
chain: GNQWFISSQIRQNYSTDVEAAVNSLVNLYLQASYTYLSLGFYFDRDDVALEGVSHFFRELAEEKREGYERLLKMQNQRGGRALFQDIKKPAEDEWGKTPDAMKAAMALEKKLNQALLDLHALGSARTDPHLCDFLETHFLDEEVKLIKKMGDHLTNLHRLGGVPAGGVPAAGVPAGGVPAGGVPAIGVPAGGVPAGGVPAAGVPAGGVPAGGVPAIGVPAGGVPAGGVPAAGVPAGGVPAGGVPAIGVPAGGVPAGGVPAAGVPAGGVPAGGVPAIGVPAGGVPAGGVPAAGVPAGGVPAGGVPAIGVPAGGVPAGGVPAAGVPAGGVPAGGVPAIGVPAGGDPFFKVPVNKLAAAVSNFGYDLYRVRSSTSPTTNVPAGGVPAAGVPAGGVPAGGVPAIGVPAGGVPAGGVPAAGVPAGGVPAGGVPAIGVPAGGVPAGGVPAAGVPAGGVPAGGVPAIGVPAGGVPAGGVPAAGVPAGGVPAGGVPAIGVPAGGVPAGGVPAAGVPAGGVPAGGVPAIGVPAGGVPAGGVPAAGVPAGGVPAGGVPAIGVPAGGPEAGLGEYLFERLTLKHD
modifications: Alexa Fluor 488 C5 maleimide conjugated at cysteine (thiol of HPC) via thiol-maleimide reaction
notes: also called dye-conjugated fusion protein cage; dye-conjugated polypeptide
Question: Does B1 bind?
Answer: Result: binds
